Results from publication PMC3092815 (Proteins, 2011).

Target: Clostridium perfringens archaeal-type phosphoenolpyruvate carboxylase (PepcA) (Clostridium perfringens) (UniProt Q8XLE8)
Assay: AUC

Clostridium perfringens archaeal-type phosphoenolpyruvate carboxylase (PepcA) (from UniProt Q8XLE8 1-537) (enzyme)
percent of the total concentration as dimer: 30%
